# From US20130231286A1, “Use of Prolactin Receptor Antagonist and Chemotherapeutic Drug for Treating Ovarian Cancer” (ONCOLIX, INC., priority 2010, published 2013)
# Assays:
# [1] = test system: human ovarian cancer cells SKOV3; assay: Human ovarian cancer cells SKOV3 injected intraperitoneally in SCID mice: tumors and secondary nodules; type: in vivo, mouse; conditions: 38 days, G129R 100 ug daily, DCT 25 ug weekly
# Method: SCID mice (laboratory experimental animals that lack both T and B lymphocytes) were injected with one million human ovarian cancer cells SKOV3 intraperitoneally on day 1.
# All mice were treated for 38 days and then sacrificed, and tumors from every experimental group were weighted.
# The effect of G129R and the G129R+DCT combination on the ability of human ovarian cancer cells to metastasize was also studied.
# [2] = test system: mouse ovarian cancer cells ID8; assay: Mouse ovarian cancer cells ID8 injected intraperitoneally in SCID mice: tumors and secondary nodules; type: in vivo; conditions: 52 days, G129R 100 ug daily, DCT 25 ug weekly
# Method: SCID mice were injected with one million mouse ovarian cancer cells ID8 intraperitoneally on day 1.
# All mice were treated for 52 days and then sacrificed, and tumors from every experimental group were weighted.
# The effect of G129R and the G129R+DCT combination on the ability of mouse ovarian cancer cells to metastasize was also studied.
# [3] = test system: Human triple-negative breast cancer cells MDA-MB-231; assay: ALDH1 activity (ALDEFLUOR fluorescent assay) in triple-negative breast cancer cells; type: cell-based; conditions: MDA-MB-231, G129R 10 ug/ml, three days, vs control
# Method: Human triple-negative breast cancer cells MDA-MB-231 and control breast cancer cells T-47D were plated in 6 well plates at 1×10^5 cells/ml, and allowed to adhere for 24 hours in growth media followed by 2 hours of serum free media depletion. The cells were then cultured either without (control) or with prolactin (100 ng/ml) or G129R (10 ug/ml) for three days. The cells were then collected and the ALDH-1 activity (this enzyme is a marker for cancer stem cells. See Ginestier et al., Cell Stem Cell 2007 1(5): 555-567) was measured by ALDEFLUOR^R fluorescent assay (StemCell Technologies).
# [4] = test system: mammary HER2+ adenocarcinomas of MMTV/neu transgenic mice; assay: ALDH1 activity in tumor cells isolated from treated MMTV/neu transgenic mice; type: in vivo, mouse
# Method: MMTV/neu transgenic mice carry an activated c-neu oncogene driven by a mouse mammary tumor virus (MMTV) promoter and develop mammary HER2^+ adenocarcinomas (Muller et al. 1988. Cell. 54(1):105-15). MMTV/neu transgenic mice bearing mammary tumors were treated with PBS (n=4) or G129R for 5 (n=2) or 10 (n=3) days (10 mg/kg, i.p.). The tumors were isolated at the end of treatment, digested to a single cell suspension, and ALDH1 activity levels were compared.
# [5] = test system: Primary mammary tumor cells isolated from MMTV/neu transgenic mouse; assay: ALDH1 activity in cultured primary MMTV/neu mammary tumor cells, time course; type: cell-based; conditions: G129R 10 ug/ml
# Method: Primary mammary tumor cells were isolated from MMTV/neu transgenic mouse and cultured in the presence of G129R (10 ug/ml) or PRL (100 ng/ml) for 24, 48, 72, or 96 hrs. Specifically, tumor removed from an MMTV-neu mouse was digested to a single cell suspension and plated in 12-well plates at 1×10^5 cells/ml. Cells were allowed to adhere for 24 hours in growth media followed by 2 hours of serum-free media depletion. The cells were then either treated without (control) or with prolactin (100 ng/ml) or G129R (10 ug/ml). Cells were collected following 24, 48, 72, or 96 hours of treatment and the ALDH-1 activity was measured.
# [6] = test system: lung metastases of HER2+/neu breast tumors; assay: Lung metastases after removal of primary breast tumors in MMTV/neu mice; type: in vivo, mouse; conditions: 200 ug/day i.p. for more than 40 days, vs untreated control, P<0.05
# Method: Primary breast tumors were removed from MMTV/neu transgenic mice. The mice were then treated either with PBS or G129R (200 ug/day, i.p.) for more than 40 days. When the secondary tumors (recurrence) grew to a certain size, the mice were sacrificed and the lungs were excised and fixed in Bouin's fixative to observe metastasis.
# [7] = test system: HER2+/neu tumors implanted into female transgenic mice; assay: Growth of implanted tumors in transgenic mice; type: in vivo, mouse; conditions: 10 mg/kg i.p. daily, 50 days; ±SEM
# Method: In two separate experiments, tumors were isolated from female transgenic mice, sectioned into equivalent sized pieces and implanted into age-matched recipient female transgenic mice. Ten days after implantation, mice were randomized into either control (n=3-4) or G129R treated groups (n=4, 10 mg/kg, i.p. daily). The mice were then treated on a daily basis for 50 days and tumor volumes for the control and treated groups were monitored.
# [8] = test system: phosphorylated Neu protein; assay: Phosphorylation of Neu protein in primary and secondary tumors (western blotting); type: in vivo, mouse; conditions: 200 ug per day for 5 days, vs PBS
# Method: MMTV/neu mice (bearing primary and secondary tumors) were treated either with PBS (control) or with 200 ug of G129R per day for 5 days. Primary and secondary tumors were removed 24 hours following the 5th treatment and processed for western blotting.
# [9] = test system: phosphorylated HER2/neu protein; assay: Dose-dependent response of phosphorylated HER2/neu in tumors in vivo (western blotting); parameters: species or system mouse; conditions: i.p. for ten days; 2.5, 5, 10, 20 mg/kg/day tested
# Method: To determine a minimal dosage of G129R required for decreasing phosphorylation of HER^+/neu in vivo, a biopsy was removed from tumors of MMTV/neu transgenic mice and was used as a self-control baseline. The mice were then treated i.p. for ten days with either PBS or G129R at the following concentrations: 50, 100, 200 or 400 ug daily (2.5 mg/kg/day, 5 mg/kg/day; 10 mg/kg/day; or 20 mg/kg/day of G129R). The tumors were then harvested and processed for western blotting. The western blots were then probed with an antibody that detects phosphorylated HER2/neu protein and an antibody against beta-tubulin as a control for gel loading and western blotting transfer.
# [10] = test system: phosphorylated HER2/neu protein; assay: Time-dependent response of phosphorylated HER2/neu in tumors in vivo (western blot); parameters: species or system mouse; conditions: 10 mg/kg/day i.p.
# Method: To determine an optimal length of treatment with G129R, MMTV tumor-bearing mice were treated with 200 ug G129R for either five or ten days. Tumors were removed 24 hours after the last treatment and processed for western blot analysis. […] As also can be seen in FIG. 8, of 10 mice receiving a 10 day treatment of G129R (10 mg/kg/day, i.p.), tumors from 3 mice were highly responsive and virtually no phosphorylated HER2/neu was detected in these tumors, 5 mice were moderately responsive and 2 mice were nonresponsive.
molecule,measurement,setting,value
"CC(=O)O[C@@]12CO[C@@H]1C[C@H](O)[C@@]1(C)C(=O)[C@H](O)C3=C(C)[C@@H](OC(=O)[C@H](O)[C@@H](NC(=O)OC(C)(C)C)c4ccccc4)C[C@@](O)([C@@H](OC(=O)c4ccccc4)[C@H]21)C3(C)C [docetaxel, reference compound]",number of secondary nodules (metastases) versus control,[1],suppressed the number of secondary nodules
same,size (weight) of tumors versus control,[1],suppressed the growth of tumors
same,number of secondary nodules (metastases) versus control,[2],suppressed the number of secondary nodules
same,size (weight) of tumors versus control,[2],suppressed the tumor growth
G129R: prolactin receptor antagonist: human prolactin in which glycine at position 129 is substituted with arginine (protein) LPICPGGAARCQVTLRDLFDRAVVLSHYIHNLSSEMFSEFDKRYTHGRGFITKAINSCHTSSLATPEDKEQAQQMNQKDFLSLIVSILRSWNEPLYHLVTEVRGMQEAPEAILSKAVEIEEQTKRLLERMELIVSQVHPETKENEIYPVWSGLPSLQMADEESRLSAYYNLLHCLRRDSHKIDNYLKLLKCRIIHNNNC,ALDH1 activity in triple-negative breast cancer cells,[3],significantly reduced
same,ALDH1 activity in cancer cells isolated from treated animals,"[4]; 10 mg/kg i.p. for 5 or 10 days, vs PBS",significantly reduced
same,ALDH1 activity in cancer cells after ten days of treatment,"[4]; 10 mg/kg i.p., ten days",Practically no ALDH1 activity was detected
same,reduction of ALDH1 activity versus control,[5]; 96 hrs,92.3%
same,ALDH1 activity over the time course,"[5]; 24, 48, 72, 96 hrs",steady decrease
same,percentage of animals with lung metastases,[6],significantly reduced
same,final tumor volume smaller than control (first value of two experiments),[7],67.1%
same,final tumor volume smaller than control (second value of two experiments),[7],71.5%
same,final tumor weight reduced versus control (first value of two experiments),[7],61.3%
same,final tumor weight reduced versus control (second value of two experiments),[7],62.5%
same,phosphorylated Neu protein in primary tumors,[8],significant decrease
same,phosphorylation of neu in secondary tumors,[8]; some phosphorylated neu still detected,decrease
same,lowest dosage with inhibitory effect on phosphorylation of HER+/neu,[9],5 mg/kg/day
same,mice highly responsive (virtually no phosphorylated HER2/neu detected),"[10]; of 10 mice, 10 day treatment",3 mice
same,mice moderately responsive,"[10]; of 10 mice, 10 day treatment",5 mice
same,nonresponsive mice,"[10]; of 10 mice, 10 day treatment",2 mice
same,mice moderately responsive (noticeable reduction in phosphorylated HER2/neu),"[10]; of 14 mice, 5 day treatment",4 mice
same,mice whose tumors showed drastic reduction in phosphorylated HER2/neu,"[10]; of 14 mice, 5 day treatment",5 mice
same,nonresponsive mice,"[10]; of 14 mice, 5 day treatment",5 mice
same,number of secondary nodules (metastases) versus control,[1],decreased the number of secondary nodules
same,size (weight) of tumors versus control,[1],decreased the size of tumors
same,number of secondary nodules (metastases) versus control,[2],decreased the number of secondary nodules
same,size (weight) of tumors versus control,[2],decreased the size of tumors
